Assay results as given in US20230331862A1 (SHANGHAI GENBASE BIOTECHNOLOGY, published 2023).
Substitutions are numbered along the chain they refer to. Each block holds one binder with its values, some of them ahead of it.

What was measured:
[1] = molecular target: T1, CEACAM5 (CD66e) on tumour cells (human, UniProt P06731 35-685, glycosylated (natural, as on tumour cells)); test: flow cytometry on Lovo monoclonal clone 2-1, fluorescent secondary antibody
T1 construct: whole, on cells; One molecule for CEACAM5 on all three cell lines; the cell line is named under assay; also called natural CEACAM5 antigen; Lovo cells
T1 sequence (looked up): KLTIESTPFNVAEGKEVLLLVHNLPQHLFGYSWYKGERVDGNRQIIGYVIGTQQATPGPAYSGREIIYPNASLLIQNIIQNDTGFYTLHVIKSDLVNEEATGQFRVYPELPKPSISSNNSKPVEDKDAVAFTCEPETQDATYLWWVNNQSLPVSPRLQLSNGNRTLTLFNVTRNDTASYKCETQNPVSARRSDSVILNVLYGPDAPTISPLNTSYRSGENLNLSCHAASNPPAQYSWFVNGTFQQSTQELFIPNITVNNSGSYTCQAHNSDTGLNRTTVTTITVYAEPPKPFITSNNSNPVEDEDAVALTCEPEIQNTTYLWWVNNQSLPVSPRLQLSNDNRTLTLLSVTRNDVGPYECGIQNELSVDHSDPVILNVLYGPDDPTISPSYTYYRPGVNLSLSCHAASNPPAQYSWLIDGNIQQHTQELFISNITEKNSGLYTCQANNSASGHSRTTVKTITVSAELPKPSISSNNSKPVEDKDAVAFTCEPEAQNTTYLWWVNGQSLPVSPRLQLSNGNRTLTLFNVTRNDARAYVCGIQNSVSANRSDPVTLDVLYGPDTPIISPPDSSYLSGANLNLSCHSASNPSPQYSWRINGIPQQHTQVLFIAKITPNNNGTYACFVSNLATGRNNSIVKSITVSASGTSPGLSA
Procedure: (§1) After labeling, anti-mouse Fc-PE fluorescence-labeled secondary antibody was added, sorted into 96-well plate by BD FACS Aria, after monoclonal culture was carried out, MN14 was used to detect the expression of monoclonal CEACAM5, and the results were as follows: […]

[2] = molecular target: T1, CEACAM5 (CD66e) on tumour cells; test: flow cytometry on Lovo monoclonal clone 8-1, fluorescent secondary antibody
Procedure: as §1

[3] = molecular target: T1, CEACAM5 (CD66e) on tumour cells; test: flow cytometry on Lovo monoclonal clone 5-1, fluorescent secondary antibody
Procedure: as §1

[4] = molecular target: T1, CEACAM5 (CD66e) on tumour cells; test: flow cytometry on Lovo monoclonal clone 4-2, fluorescent secondary antibody
Procedure: as §1

[5] = molecular target: T1, CEACAM5 (CD66e) on tumour cells; test: flow cytometry on Lovo monoclonal clone 8-2, fluorescent secondary antibody
Procedure: as §1

[6] = molecular target: T1, CEACAM5 (CD66e) on tumour cells; test: flow cytometry on Lovo monoclonal clone 7-1, fluorescent secondary antibody
Procedure: as §1

[7] = molecular target: T1, CEACAM5 (CD66e) on tumour cells; test: flow cytometry on Lovo monoclonal clone 2-2, fluorescent secondary antibody
Procedure: as §1

[8] = molecular target: T1, CEACAM5 (CD66e) on tumour cells; test: flow cytometry on Lovo monoclonal clone 6-2, fluorescent secondary antibody
Procedure: as §1

[9] = molecular target: T1, CEACAM5 (CD66e) on tumour cells; test: flow cytometry on Lovo monoclonal clone 1-2, fluorescent secondary antibody
Procedure: as §1

[10] = molecular target: T1, CEACAM5 (CD66e) on tumour cells; test: flow cytometry on Lovo monoclonal clone 3-1, fluorescent secondary antibody
Procedure: as §1

[11] = molecular target: T1, CEACAM5 (CD66e) on tumour cells; test: flow cytometry on Lovo monoclonal clone 1-1, fluorescent secondary antibody
Procedure: as §1

[12] = molecular target: T1, CEACAM5 (CD66e) on tumour cells; test: flow cytometry on Lovo monoclonal clone 7-2, fluorescent secondary antibody
Procedure: as §1

[13] = molecular target: T1, CEACAM5 (CD66e) on tumour cells; test: flow cytometry on Lovo monoclonal clone 4-1, fluorescent secondary antibody
Procedure: as §1

[14] = molecular target: T1, CEACAM5 (CD66e) on tumour cells; test: flow cytometry on Lovo monoclonal clone 5-2, fluorescent secondary antibody
Procedure: as §1

[15] = molecular target: T1, CEACAM5 (CD66e) on tumour cells; test: flow cytometry on Lovo monoclonal clone 6-1, fluorescent secondary antibody
Procedure: as §1

[16] = molecular target: T1, CEACAM5 (CD66e) on tumour cells; test: flow cytometry on Lovo monoclonal clone 3-2, fluorescent secondary antibody
Procedure: as §1

[17] = molecular target: T1, CEACAM5 (CD66e) on tumour cells; test: hybridoma supernatant on Lovo cells, anti-mouse Fc-FITC, Celigo imaging
Procedure: Lovo cells and Lovo CEA KO cells were inoculated in 96-well plates, 10⁴ per well, and cultured overnight, 1-10 μl of hybridoma supernatant was added to Lovo/Lovo CEA KO cell culture plates, incubated for 1 hour, the supernatant was discarded, anti-mouse Fc-FITC fluorescent secondary antibody was added, incubated for 1 hour, the supernatant was discarded, DPBS solution containing 2% BSA was added, the fluorescent signals and FITC staining areas were read and analyzed in Celigo.

[18] = molecular target: T2, recombinant CEACAM5 antigen (Sinobiological, 11077-H08H) (UniProt P06731 35-685); test: ELISA, coated recombinant CEACAM5-His 1 µg/ml, anti-human IgG Fc-HRP
T2 construct: Bought protein; also called CEACAM5-His recombinant protein; CEACAM5-His antigen; not shown: His tag
T2 sequence (looked up): T1 sequence (looked up)
Procedure: The recombinant CEACAM5 antigen (Sinobiological, 11077-H08H) was diluted to 1 μg/ml with DPBS solution, added to a 96-well plate, 100 μl per well, and coated overnight at 2-8° C.; the coating solution was discarded, washing was performed twice with PBS solution, PBS solution containing 2% BSA was added, and blocked at room temperature for 2 hours; the blocking solution was discarded, the antibody diluted in concentration gradient was added, and incubated at 37° C. for 1 hour; the antibody solution was discarded, and washing was performed for 4 times with PBS solution containing 0.05% Tween 20 (PBST solution); anti-human IgG Fc-HRP secondary antibody was added and incubated at 37° C. for 30 minutes; washing was performed for 4 times with PBST solution, TMB chromogenic substrate was added, color development was performed for 5-10 minutes, and the reaction was terminated with equal volume of 1M H₂SO₄; the absorbance at 450 nm was read on a microplate reader.

[19] = molecular target: T1, CEACAM5 (CD66e) on tumour cells; test: flow cytometry on LS174T cells, anti-human IgG Fc-APC
Procedure: (§2) After the cells were digested with TrypLE, they were centrifuged and resuspended in DPBS solution containing 2% BSA (FACS buffer solution, 4° C.), and added into a U-bottom 96-well plate, 5×10⁵/100 μl/well, and antibody diluted in concentration gradient was added, incubated at 4° C. for 1 hour, the supernatant was discarded after centrifugation; 100 μl of solution containing anti-human IgG Fc-APC secondary antibody was added and incubated at 4° C. for 1 hour, washing was performed once with FACS buffer, resuspending was performed in 200 μl FACS buffer, and the fluorescence signal value was read on BD Cantoll.

[20] = molecular target: T1, CEACAM5 (CD66e) on tumour cells; test: flow cytometry on KATO3 cells, anti-human IgG Fc-APC
Procedure: as §2

CEACAM5 positive ratio, % [1]: 95.6% | CEACAM5 positive ratio, % [2]: 97.9% | CEACAM5 positive ratio, % [3]: 76.6% | CEACAM5 positive ratio, % [4]: 82.7% | CEACAM5 positive ratio, % [5]: 96.8% | CEACAM5 positive ratio, % [6]: 93.9% | CEACAM5 positive ratio, % [7]: 96.4% | CEACAM5 positive ratio, % [8]: 88.1% | CEACAM5 positive ratio, % [9]: 95.6% | CEACAM5 positive ratio, % [10]: 97.8% | CEACAM5 positive ratio, % [11]: 90.5% | CEACAM5 positive ratio, % [12]: 96.9% | CEACAM5 positive ratio, % [13]: 93.7% | CEACAM5 positive ratio, % [14]: 96.9% | CEACAM5 positive ratio, % [15]: 98.6% | CEACAM5 positive ratio, % [16]: 95.9%
B1: anti-CEACAM5 antibody hMN14 (antibody, human IgG1, kappa, V domains shown)
VH: EVQLVESGGGVVQPGRSLRLSCSASGFDFTTYWMSWVRQAPGKGLEWIGEIHPDSSTINYAPSLKDRFTISRDNAKNTLFLQMDSLRPEDTGVYFCASLYFGFPWFAYWGQGTPVTVSS
VL: DIQLTQSPSSLSASVGDRVTITCKASQDVGTSVAWYQQKPGKAPKLLIYWTSTRHTGVPSRFSGSGSGTDFTFTISSLQPEDIATYYCQQYSLYRSFGQGTKVEIKR
notes: T0002 prints whole heavy and light chains under the labels 'hMN14 VH' and 'hMN14 VL'

EC50 [18]: 0.016 µg/mL | EC50 [19]: 11.9 µg/mL | EC50 [20]: 13.9 µg/mL
B3: M18 (7G1) chimeric recombinant antibody (antibody, V domains shown)
VH: QIQLVQSGPELKKPGETVKISCKASGYTFTTYGMTWVKQAPGKGLKWMGWINTYSGVPTYIDDFKGRFAFSLETSASTAYLQINNLKNEDTATYFCGRKDLLGFMDYWGQGTSVTVSS
VL: DIQMTQSPSSLSASLGGKVTITCKTSQDINKFMAWYQHKPGKGPRLLIRYTSTLQPGIPSRFSGSGSGRDYSFSIRNLEPEDIATYYCLQYDDLTWTFGGGTKLEI

More lines, now with the values behind:

B2: M18 (7G1), mouse hybridoma antibody (antibody, V domains shown)
VH: B3 VH
VL: B3 VL
notes: Hybridoma supernatant, detected with anti-mouse Fc
Lovo binding percentage [17]: 89.5%

B4: M7 (11B6) chimeric recombinant antibody (antibody, V domains shown)
VH: EVQLQQSGAELVRPGASVKLSCTVSGFNIKDDYMHWVKQRPEQGLEWIGWIDPENGDTEYASKFQGKATITADTSSNSAYLQLSSLTSEDTAVYYCTFIYYVNPHYYAMDYWGQGTSVTVSS
VL: QIVLTQSPAIMSASPGEKVTITCSATSSVSYMHWFQQKPGTSPKLWIYSTSNLASGVPARFSGSGSGTSYSLTISRVEAEDAATYYCQQRSSYPLTFGAGTKLELK
EC50 [18]: 0.008 µg/mL | EC50 [19]: 1.9 µg/mL | EC50 [20]: 2.6 µg/mL

B5: M17 (6A8) chimeric recombinant antibody (antibody, V domains shown)
VH: EVQLQQSGAELVRPGASVKLSCTASGFNIKDDYMHWVKQRPEQGLEWIGWIDPENGDTEYASKFQGKATITADTSSNTAYLLLSSLTSEDTAVYYCTTIYYYGSRGAMDYWGQGTSVTVSS
VL: B4 VL with T26S, S49T, N52T, S71F, V77M, Q88H
EC50 [18]: 0.013 µg/mL | EC50 [19]: 1.5 µg/mL | EC50 [20]: 2.7 µg/mL
